# B1: CR6261 (antibody, V domains shown)
# VH: EVQLVESGAEVKKPGSSVKVSCKASGGPFRSYAISWVRQAPGQGPEWMGGIIPIFGTTKYAPKFQGRVTITADDFAGTVYMELSSLRSEDTAMYYCAKHMGYQVRETMDVWGKGTTVTVSS
# VL: QSVLTQPPSVSAAPGQKVTISCSGSSSNIGNDYVSWYQQLPGTAPKLLIYDNNKRPSGIPDRFSGSKSGTSATLGITGLQTGDEANYYCATWDRRPTAYVVFGGGTKLTVLG
# How the values were obtained:
# Test in all cases: ELISA, coated CR6261, P. pastoris medium
# Details in all cases: remark: other sources report otherwise
# [1] = biological target: 249B11 (influenza A H1N1 A/Brisbane/59/2007)
# [2] = biological target: 213B2 (influenza A H1N1 A/Brisbane/59/2007)
# [3] = biological target: 251C8 (influenza A H1N1 A/Brisbane/59/2007)
# [4] = biological target: 134A3 (influenza A H1N1 A/Brisbane/59/2007)
# [5] = biological target: 271F10 (influenza A H1N1 A/Brisbane/59/2007)
# [6] = biological target: 194C8 (influenza A H1N1 A/Brisbane/59/2007)
# [7] = biological target: 138F11 (influenza A H1N1 A/Brisbane/59/2007)
# [8] = biological target: 199F3 (influenza A H1N1 A/Brisbane/59/2007)
# [9] = biological target: 123G2 (influenza A H1N1 A/Brisbane/59/2007)
# [10] = biological target: 188C8 (influenza A H1N1 A/Brisbane/59/2007)
# [11] = biological target: 233F11 (influenza A H1N1 A/Brisbane/59/2007)
# [12] = biological target: 137C5 (influenza A H1N1 A/Brisbane/59/2007)
# [13] = biological target: 182C6 (influenza A H1N1 A/Brisbane/59/2007)
# [14] = biological target: 218G11 (influenza A H1N1 A/Brisbane/59/2007)
# [15] = biological target: 266A11 (influenza A H1N1 A/Brisbane/59/2007)
# [16] = biological target: 148D5 (influenza A H1N1 A/Brisbane/59/2007)
# [17] = biological target: 188G10 (influenza A H1N1 A/Brisbane/59/2007)
# [18] = biological target: 182D3 (influenza A H1N1 A/Brisbane/59/2007)
# [19] = biological target: 24782 (influenza A H1N1 A/Brisbane/59/2007)
# [20] = biological target: 112F3 (influenza A H1N1 A/Brisbane/59/2007)
# [21] = biological target: 101D4 (influenza A H1N1 A/Brisbane/59/2007)
# [22] = biological target: 264G4 (influenza A H1N1 A/Brisbane/59/2007)
# [23] = biological target: 131D5 (influenza A H1N1 A/Brisbane/59/2007)
# [24] = biological target: 174G3 (influenza A H1N1 A/Brisbane/59/2007)
# [25] = biological target: 18987 (influenza A H1N1 A/Brisbane/59/2007)
# [26] = biological target: 181H9 (influenza A H1N1 A/Brisbane/59/2007)
# [27] = biological target: 182H2 (influenza A H1N1 A/Brisbane/59/2007)
# [28] = biological target: 137C11 (influenza A H1N1 A/Brisbane/59/2007)
# [29] = biological target: 301F11 (influenza A H1N1 A/Brisbane/59/2007)
# [30] = biological target: 304G11 (influenza A H1N1 A/Brisbane/59/2007)
# [31] = biological target: 191C8 (influenza A H1N1 A/Brisbane/59/2007)
# [32] = biological target: 145E8 (influenza A H1N1 A/Brisbane/59/2007)
# [33] = biological target: 20688 (influenza A H1N1 A/Brisbane/59/2007)
# [34] = biological target: 187C6 (influenza A H1N1 A/Brisbane/59/2007)
# [35] = biological target: 214C4 (influenza A H1N1 A/Brisbane/59/2007)
binder,measurement,setting,value
B1,CR6261 binding signal,[1],145000
same,CR6261 binding signal,[2],132000
same,CR6261 binding signal,[3],270000
same,CR6261 binding signal,[4],532000
same,CR6261 binding signal,[5],315000
same,CR6261 binding signal,[6],242000
same,CR6261 binding signal,[7],148000
same,CR6261 binding signal,[8],329000
same,CR6261 binding signal,[9],499000
same,CR6261 binding signal,[10],113000
same,CR6261 binding signal,[11],583000
same,CR6261 binding signal,[12],296000
same,CR6261 binding signal,[13],92900
same,CR6261 binding signal,[14],959000
same,CR6261 binding signal,[15],90600
same,CR6261 binding signal,[16],329000
same,CR6261 binding signal,[17],143000
same,CR6261 binding signal,[18],143000
same,CR6261 binding signal,[19],415000
same,CR6261 binding signal,[20],450000
same,CR6261 binding signal,[21],337000
same,CR6261 binding signal,[22],181000
same,CR6261 binding signal,[23],345000
same,CR6261 binding signal,[24],491000
same,CR6261 binding signal,[25],336000
same,CR6261 binding signal,[26],311000
same,CR6261 binding signal,[27],110000
same,CR6261 binding signal,[28],417000
same,CR6261 binding signal,[29],117000
same,CR6261 binding signal,[30],111000
same,CR6261 binding signal,[31],309000
same,CR6261 binding signal,[32],212000
same,CR6261 binding signal,[33],286000
same,CR6261 binding signal,[34],345000
same,CR6261 binding signal,[35],302000

# Source: patent publication US20170189519A1
